B2: MHAS2168 (natural protein, Mycobacterium hassiacum)
chain: MSAFPQTPNRLIRPRRTSRGIAISAGGLAVLLGALDTYVVVSIVTDIMRDVGIAVNQIQRVTPIITGYLLGYIAAMPLLGRASDRFGRKLLIQISLAGFALGSVITALATNLDVLVAGRVIQGAASGALLPVTLALAADLWATHKRAAVLGGVGAAQELGAVLGPIYGIFVVWLFHHWQAVFWVNVPLALIAMVLIHISLPPRVRTEEPQRVDVTGGLLLALALGLATIGLYNAEPDGKQVLPEYGPPLIIGAVIAAVAFLVWERFARTRLLDPAGVRFRPFLIALLVSLVTGGALMVTLVNVELFGQGVLGLDQDEAVFLLARFLIALPVGALLGGWIATRVGDRAVTAVGLLIAAGGFYLIAQWPADVLESRHDLGFVSLPTLDTDLAIAGFGLGLVIAPLTSAALRVVPAAQHGIASAAVVVARMIGMLIGIAALSAWGLYRFNQYLKEQLAALPPAPADFPGGQMAGQMMRLRTATVQAYVLQYGEIFAITAGLCVFGAVLGLFIAGRREHAEESADAVDGVSNARDRAPSA
notes: C-terminal fusion: 3C protease cleavage site, GFP, His10; residues of the 3C site may be left after cleavage; also called Rv1410 homologue from Mycobacterium hassiacum; MHAS2168^OUT; not shown: GFP, C-terminal, cleaved; His10, C-terminal, cleaved

Assays:
[1] = molecular target: B2; experiment: crystal structure; […]) at 20 °C; […]; settings: both partners purified
[2] = molecular target: T1, megabody H2 (Mb_H2) ( | alpaca); experiment: cryo-EM structure; settings: both partners purified
T1 construct: the first thirteen N-terminal residues that form the β-strand A of a nanobody, encoded by the vector pBXMBQ; not shown: His10, C-terminal, cleaved

B1: nanobody H2 (Nb_H2) (VHH)
VHH: QGQLVESGGGLVQPGGSLRLSCADAGSIFNKFPMAWYRQAPGKERELVARISSGGSTNYADFVKGRFTISRDNAKSTLYLQMNSLKPEDTAMYYCARIINSASNIAYWGQGTRVTVSA
notes: alpaca-derived nanobody selected by phage display against MHAS2168; they are in PDB 8PNL chain B (and chain D); MBP and His-tag removed with 3C protease; not shown: His10, N-terminal, cleaved
[1]
  binding result: binds

## B2
[2]
  binding result: binds
